Target: XPA (UniProt P23025 1-273)
Experiment: EMSA; XPA pre-incubated with short PAR (16-20-mer), no effect on binding; EMSA: 25 mM Hepes-KOH pH 8.3, 30 mM KCl, 0.4 mM MgCl2, 1 mM EDTA, 10% glycerol, 45 ug/mL BSA, 0.9 mM DTT; 30 min; temperature not stated. Poly(ADP-ribose) overlay binding (XPA, H1, BSA, PBM peptides) not listed: PAR is not DNA/RNA
Details: protein: recombinant; tags: His-tag; label: biotin on the 19-mer; duplex of 19-mer and 25-mer with loop on one strand

XPA, sequence (P23025 whole entry): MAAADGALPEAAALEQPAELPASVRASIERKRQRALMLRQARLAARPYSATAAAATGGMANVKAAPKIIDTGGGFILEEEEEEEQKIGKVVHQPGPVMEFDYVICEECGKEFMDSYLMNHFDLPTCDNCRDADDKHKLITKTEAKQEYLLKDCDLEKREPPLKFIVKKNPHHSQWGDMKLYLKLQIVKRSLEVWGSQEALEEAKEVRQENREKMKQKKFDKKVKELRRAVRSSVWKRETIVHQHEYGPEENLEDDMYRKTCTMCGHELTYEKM

B1: loop-containing duplex (19-mer annealed with 25-mer) (dsDNA)
DNA 1: ACCACCCTTCGAACCACAC
DNA 2: GTGTGGTTCGCGCGCGAAGGGTGGT
  binding result: binds

— paper PMC4160017, “Poly(ADP‐ribose)‐mediated interplay of XPA and PARP1 leads to reciprocal regulation of protein function”
